Source: patent US6878861B2, “Acyl coenzyme A thioesterases” (Washington State University Research Foundation, priority 2000, dated 2005)
Entries after “also recorded” stand apart in the source; their conditions may differ.

Test: Acyl-CoA thioesterase assay with radiolabeled acyl-CoA, lysate of cells over-expressing ACH1
Format: biochemical
Details: lysate of transfected E. coli cells
Experimental: In these assays, radiolabeled acyl-CoA is used as a substrate in which the [^14C] label is on the fatty acid portion of the molecule, and the enzyme activity is measured by the amount of labeled free fatty acid released by the action of the enzyme. Typically, the acyl group is palmitoyl-CoA (16:0 Co-A) or oleoyl-CoA (18:1-CoA). Because the reaction pH must be below 9, as a pH above this level causes base-catalyzed hydrolysis of the substrate, in most experiments the enzyme activity is measured between pH 7 and 9. The reactions are conducted at room temperature. The reaction volume is generally kept from about 32 μl to 100 μl. Although the reaction times may vary, typical incubation times are 10-15 minutes, which is sufficient for even small amounts of protein.
The protein solution to be assayed, which can be purified protein over-expressed in E. coli or unpurified protein in a plant extract or a plant subfraction, such as purified chloroplasts, is brought to the desired volume with buffer (20 mM Tris-HCl, pH 7.2, 200 mM NaCl and 1 mM EDTA). […] An 850 μl aliquot of the hexane phase is added to 3 ml BCS, and the amount of radioactivity determined in a scintillation counter.
The level of acyl-CoA thioesterase activity is determined by the amount of radioactivity that is found in the hexane phase. […]

B1: ACH1: Arabidopsis acyl-CoA thioesterase ACH1 (SEQ ID NO:5), expressed as fusion protein with a 6 histidine tag; assayed as cell lysate (protein, listed as Arabidopsis thaliana)
chain: MNTESVVEFLGNVTLLQRLPSSSLKRISEVVVFKGYDRGDYVVRENQNVDGVYFLLQGQAQVLRSAGEENYQEFPLKRYDFFGHGIFGDVYSADVVAVTELTCLLLMSDHRALLEIKSVSDSDKERCLVEDILYLEPLDLNVYRGFTPPNAPTYGKVYGGQLVGQALAAASKTVETMKIVHNFHCYFLLVGDINIPIIYDVNRLRDGNNFATRSVDARQKGKTIFTLFASFQKKQQGFIHQESTMPHTPAPETLLPREEMLERLVTEPLLPRDYRNQVATEISVPFPIDIRFCEPNRSTKQNKSPPRLKYWFRAKGKLSDDDQALHRCVVAFASDLIFATISLNPHRREGMSVAALSLDHSMWFHRPVRADDWLLFVIVSPTATESRGFATGKMFNRKGELVVSLTQEAVLREAVTIKPSFGAKL
acyl-CoA thioesterase activity of cell lysate compared with control plasmid cells: no increased acyl-CoA thioesterase activity was observed in cell lysates; also recorded: no greater than the level of activity in cells transfected with a control plasmid
